The record followed here is patent US20210087258A1 (UNIVERSITY OF TOKYO, published 2021).

This assay deals with T1, P1-2 domain of VP1 of human norovirus (GII.4 strain) (human norovirus (GII.4 strain)).
T1 construct: also called VP1 P1-2 domain
T1 chain: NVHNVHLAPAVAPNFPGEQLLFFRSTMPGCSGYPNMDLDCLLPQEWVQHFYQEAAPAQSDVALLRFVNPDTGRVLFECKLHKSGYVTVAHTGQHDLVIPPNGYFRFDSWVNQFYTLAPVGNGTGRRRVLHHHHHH
Kind of assay: Western blot of denatured VP1 domains. On the technique in general: A western blot detects proteins with antibodies after separation by electrophoresis.

B1: KVP-7C6 (VHH)
VHH: EVQLVESGGGLVQAGGSLRLSCAASGRTFGPNVMGWYRQAPGKQRELVASKTSGRLSNYADSVKGRFAISRDFAKNTLYLQMNNLRPDDTAVYYCRLWDSARSTEYWGQGTQVTVSS
notes: Llama VHH (nanoantibody) expressed in E. coli from pMEK222 (FLAG tag and His tag); not shown: FLAG tag and His tag from vector pMEK222
Regarding B1, the binding result is reported as “no binding (tested: 10 µg/ml)”.

B2: KVP-12B8 (VHH)
VHH: EVQLVESGGGSVQSGGSLRLSCAASGYPFSDNAMGWYRQAPGNQRELVATITNSNSTKYADSVKGRFTISRDSAKNTIYLEMNSLKPEDTAIYYCRIERTGRTSIKWTYWGQGTQVTVSS
notes: Llama VHH (nanoantibody) expressed in E. coli from pMEK222 (FLAG tag and His tag); also called IC VP-12B8; not shown: FLAG tag and His tag from vector pMEK222
As for B2, the binding result is “no binding (tested: 10 µg/ml)”.
